# Data published in the Immune Epitope Database (IEDB).
# pKd: −log10 of the molar value.
# Tests used:
# [1] = target: HLA-C*06:02; test: IEDB peptide-MHC binding, purified MHC/competitive/fluorescence; filed as Kd, often an IC50 or EC50 that approximates it; ≥ and ≤ were set here for values at or beyond the usual limits of such assays; conditions: source organism: Clostridium novyi NT
# [2] = target: HLA-B*46:01; test: as above; conditions: source organism: Clostridium novyi NT
# [3] = target: HLA-B*27:20; test: as above
# [4] = target: HLA-B*15:42; test: as above
# [5] = target: HLA-A*32:15; test: as above
# [6] = target: HLA-A*68:23; test: as above
# [7] = target: HLA-A*32:07; test: as above
# [8] = target: HLA-B*45:06; test: as above
# [9] = target: HLA-C*14:02; test: as above; conditions: source organism: Clostridium novyi NT
# [10] = target: HLA-B*83:01; test: as above
# [11] = target: HLA-C*05:01; test: IEDB peptide-MHC binding, purified MHC/direct/fluorescence; filed as Kd, often an IC50 or EC50 that approximates it; ≥ and ≤ were set here for values at or beyond the usual limits of such assays; conditions: source organism: Clostridium novyi NT
# [12] = target: HLA-C*03:03; test: as above; conditions: source organism: Clostridium novyi NT
# [13] = target: HLA-A*01:01; test: as above; conditions: source organism: Influenza A virus (A/camel/Mongolia/1982(H1N1))
# [14] = target: HLA-B*46:01; test: as above
# [15] = target: HLA-B*15:09; test: as above; conditions: source organism: Influenza A virus (A/Taiwan/2/2006(H1N1))
# [16] = target: HLA-B*58:01; test: as above; conditions: source organism: Influenza A virus (A/camel/Mongolia/1982(H1N1))
# [17] = target: HLA-A*24:02; test: as above; conditions: source organism: Influenza A virus (A/camel/Mongolia/1982(H1N1))
# [18] = target: HLA-B*15:01; test: as above
# [19] = target: HLA-B*18:01; test: as above
# [20] = target: HLA-B*40:01; test: as above; conditions: source organism: Influenza A virus (A/camel/Mongolia/1982(H1N1))
# [21] = target: HLA-A*02:06; test: as above
# [22] = target: HLA-A*02:01; test: as above
# [23] = target: HLA-A*31:01; test: as above; conditions: source organism: Influenza A virus (A/camel/Mongolia/1982(H1N1))
# [24] = target: HLA-B*07:02; test: as above; conditions: source organism: Influenza A virus (A/camel/Mongolia/1982(H1N1))
# [25] = target: HLA-A*11:01; test: as above; conditions: source organism: Influenza A virus (A/camel/Mongolia/1982(H1N1))
# [26] = target: HLA-A*02:03; test: as above
# [27] = target: HLA-B*44:02; test: as above; conditions: source organism: Influenza A virus (A/camel/Mongolia/1982(H1N1))
# [28] = target: HLA-A*02:12; test: as above
# [29] = target: HLA-B*27:05; test: as above; conditions: source organism: Influenza A virus (A/camel/Mongolia/1982(H1N1))
# [30] = target: HLA-A*03:01; test: as above
# [31] = target: HLA-A*02:11; test: as above
# [32] = target: HLA-B*08:01; test: as above; conditions: source organism: Influenza A virus (A/camel/Mongolia/1982(H1N1))
# [33] = target: HLA-B*73:01; test: as above; conditions: source organism: Bacillus anthracis
# [34] = target: HLA-B*27:03; test: as above
# [35] = target: HLA-B*57:01; test: as above
# [36] = target: HLA-B*15:17; test: as above
# [37] = target: HLA-A*26:01; test: as above
# [38] = target: HLA-B*51:01; test: as above
# [39] = target: HLA-C*07:02; test: as above; conditions: source organism: human gammaherpesvirus 4
# [40] = target: HLA-C*15:02; test: as above; conditions: source organism: human gammaherpesvirus 4
# [41] = target: HLA-C*14:02; test: as above; conditions: source organism: human gammaherpesvirus 4
# [42] = target: HLA-B*39:01; test: as above
# [43] = target: HLA-A*02:19; test: as above
# [44] = target: HLA-A*24:03; test: as above; conditions: source organism: Yersinia enterocolitica subsp. enterocolitica 8081
# [45] = target: HLA-A*02:16; test: as above; conditions: source organism: Bacillus cereus H3081.97
# [46] = target: HLA-A*29:02; test: as above; conditions: source organism: Bacillus cereus H3081.97
# [47] = source organism: Clostridium novyi NT
# [48] = source organism: Influenza A virus (A/camel/Mongolia/1982(H1N1))
# [49] = source organism: Influenza A virus (A/Taiwan/2/2006(H1N1))
# [50] = source organism: Cryptosporidium parvum Iowa II
# [51] = source organism: human gammaherpesvirus 4
# [52] = source organism: Yersinia enterocolitica subsp. enterocolitica 8081
# [53] = source organism: Bacillus cereus H3081.97
sequence,measurement,setting,value
ASMDNTSPM,pKd,[1],6.24
same,pKd,[2],8.07
same,pKd,[3]; [47],6.62
same,pKd,[4]; [47],≤ 5.30
same,pKd,[5]; [47],6.65
same,pKd,[6]; [47],7.53
same,pKd,[7]; [47],7.57
same,pKd,[8]; [47],≤ 5.30
same,pKd,[9],7.44
same,pKd,[10]; [47],6.83
same,pKd,[11],≤ 4.70
same,pKd,[12],≥ 9.00
ELDEIGEDV,pKd,[13],≤ 4.70
same,pKd,[14]; [48],≤ 4.70
same,pKd,[15],≤ 4.70
same,pKd,[16],≤ 4.70
same,pKd,[17],≤ 4.70
same,pKd,[18]; [48],≤ 4.70
same,pKd,[19]; [48],≤ 4.70
same,pKd,[20],≤ 4.70
same,pKd,[21]; [49],≤ 4.70
same,pKd,[22]; source organism: Influenza A virus (A/Puerto Rico/8/34/Mount Sinai(H1N1)),5.61
same,pKd,[23],≤ 4.70
same,pKd,[24],≤ 4.70
same,pKd,[25],≤ 4.70
same,pKd,[26]; [49],≤ 5.30
same,pKd,[27],≤ 4.70
same,pKd,[28]; [49],5.82
same,pKd,[29],≤ 4.70
same,pKd,[30]; [48],≤ 4.70
same,pKd,[31]; [49],6.87
same,pKd,[32],≤ 4.70
FQANMFLTL,pKd,[33],≤ 4.70
KQMSQPYAV,pKd,[34]; [50],≤ 4.70
same,pKd,[14]; [50],≤ 4.70
same,pKd,[35]; [50],≤ 4.70
same,pKd,[36]; [50],≤ 4.70
same,pKd,[21]; [50],≥ 9.00
same,pKd,[22]; [50],8.70
same,pKd,[37]; [50],≤ 4.70
same,pKd,[28]; [50],≥ 9.00
same,pKd,[30]; [50],≤ 4.70
same,pKd,[38]; [50],≤ 4.70
MMAKSNSPF,pKd,[3]; [51],7.31
same,pKd,[4]; [51],≤ 5.30
same,pKd,[5]; [51],7.37
same,pKd,[6]; [51],7.37
same,pKd,[7]; [51],7.00
same,pKd,[8]; [51],≤ 5.30
same,pKd,[10]; [51],≤ 5.30
same,pKd,[39],5.50
same,pKd,[40],≤ 4.70
same,pKd,[41],8.10
YIYDGKVNY,pKd,[34]; [52],≤ 4.70
same,pKd,[42]; [52],≤ 4.70
same,pKd,[35]; [52],≤ 4.70
same,pKd,[36]; [52],8.52
same,pKd,[19]; [52],≤ 4.70
same,pKd,[43]; [52],≤ 4.70
same,pKd,[44],≤ 4.70
same,pKd,[28]; [52],≤ 4.70
same,pKd,[31]; [52],≤ 4.70
YSTVRDLFL,pKd,[34]; [53],≤ 4.70
same,pKd,[42]; [53],≤ 4.70
same,pKd,[14]; [53],≤ 4.70
same,pKd,[35]; [53],≤ 4.70
same,pKd,[36]; [53],≥ 9.00
same,pKd,[45],≤ 4.70
same,pKd,[18]; [53],≤ 4.70
same,pKd,[19]; [53],≤ 4.70
same,pKd,[43]; [53],≤ 4.70
same,pKd,[22]; [53],≤ 4.70
same,pKd,[26]; [53],≤ 4.70
same,pKd,[46],≤ 4.70
same,pKd,[37]; [53],≤ 4.70
same,pKd,[28]; [53],≤ 4.70
same,pKd,[30]; [53],≤ 4.70
same,pKd,[31]; [53],≤ 4.70
same,pKd,[38]; [53],≤ 4.70
